Read-outs that look alike come from different tables or passages of the source.
B1: C105 (antibody, V domains shown)
VH: QVQLVESGGGLIQPGGSLRLSCAASGFTVSSNYMSWVRQAPGKGLEWVSVIYSGGSTYYADSVKGRFTISRDNSKNTLYLQMNSLRAEDTAVYYCARGEGWELPYDYWGQGTLVTVSS
VL: QSALTQPPSASGSPGQSVTISCTGTSSDVGGYKYVSWYQQHPGKAPKLMIYEVSKRPSGVPDRFSGSKSGNTASLTVSGLQAEDEADYYCSSYEGSNNFVVFGGGTKLTVL
B2: AZ090 IgG (antibody, V domains shown)
VH: QVQLVQSGPEVKKPGTSVKVSCKASQFTFSISAVQWVRQARGQRLEWMGWIVVGSGNTDYAQRFQERVTISRDMSAGTVYMELRSLRSEDTAVYYCAAPYCNKTNCRDGFDMWGQGTMVTVSS
VL: EIVLTQSPGTLSLSPGERATLSCRASQSVSSSYLAWYQQKPGQAPRLLIYGASRRATGIPDRFSGSASGTDFILTISRLEPEDFAVYYCQQYRNSPWTFGQGTKVEIK
B3: AZ229 (antibody, V domains shown)
VH: EVQLVESGGGLVQPGGSLRLSCAASGFTFSSDDMHWVRQATGKGLEWVSAIGTSGDTYYSESVKGRFTISRDNAKSSLYLQMNSLRAGDTAVYYCARGRVYDGPTSDRHYYYYVMDLWGHGTTVAVSS
VL: DIQMTQSPSSLSASVGDRVTITCRASQSINKYLNWYQQKPGKAPKLLIYAASSLQGGVPSRFSGSGSGTDFTLTITTLQPEDFATYYCQQSYSAPPWTFAQGTKVEIK

Key:
[1] = biological target: T1, SARS-CoV-2 Wuhan-Hu-1 receptor-binding domain (RBD), S protein residues 319-539 (SARS-CoV-2 Wuhan-Hu-1, UniProt P0DTC2); assay: BLI; conditions: both partners purified
[2] = biological target: T1, SARS-CoV-2 Wuhan-Hu-1 receptor-binding …

Row | Binder | binding result [1] | binding result [2]
1 | B1 | binds | –
2 | B2 | binds | –
3 | B3 | – | binds

From PMC9418484 (The Journal of Experimental Medicine, 2022)
